Test results: patent US20220324970A1 (Janssen / Centocor, published 2022)

What was measured:
[1] = target: T1, human pIgR, full-length, on cells (human, UniProt P01833 19-764); assay: cell-based or functional assay
[2] = target: T1, human pIgR, full-length, on cells; assay: cell-based or functional assay; remark: listed apart in the source
[3] = target: T1, human pIgR, full-length, on cells; assay: cell-based or functional assay; remark: listed apart in the source
[4] = target: T1, human pIgR, full-length, on cells; assay: flow cytometry on MDCK-hpIgR cells
[5] = target: T2, human pIgR extracellular domain (ECD) (human, UniProt P01833 19-638); assay: BLI; summary table, repeats Table 1
T2 construct: also called hpIgR ECD
T2 sequence (P01833 other isoform, or with tags, fused parts or gaps): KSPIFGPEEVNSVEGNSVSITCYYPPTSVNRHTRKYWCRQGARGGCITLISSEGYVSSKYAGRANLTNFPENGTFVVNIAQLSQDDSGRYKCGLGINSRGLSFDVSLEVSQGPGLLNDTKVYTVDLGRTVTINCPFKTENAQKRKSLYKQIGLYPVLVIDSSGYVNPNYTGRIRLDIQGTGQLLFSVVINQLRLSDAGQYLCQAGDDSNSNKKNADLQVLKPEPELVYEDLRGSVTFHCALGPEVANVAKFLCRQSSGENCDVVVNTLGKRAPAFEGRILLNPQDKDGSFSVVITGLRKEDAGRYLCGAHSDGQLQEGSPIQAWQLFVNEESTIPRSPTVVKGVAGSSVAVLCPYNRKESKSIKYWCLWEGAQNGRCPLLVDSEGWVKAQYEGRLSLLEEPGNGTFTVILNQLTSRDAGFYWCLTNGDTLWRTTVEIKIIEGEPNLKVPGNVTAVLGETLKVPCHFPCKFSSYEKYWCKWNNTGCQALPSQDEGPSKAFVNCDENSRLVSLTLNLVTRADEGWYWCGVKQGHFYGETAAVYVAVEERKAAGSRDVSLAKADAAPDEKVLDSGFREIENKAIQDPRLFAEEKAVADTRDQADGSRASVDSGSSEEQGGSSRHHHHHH

[6] = target: T2, human pIgR extracellular domain (ECD); assay: BLI; summary table, repeats Table 1; remark: listed apart in the source
[7] = target: T2, human pIgR extracellular domain (ECD); assay: BLI (Octet), VHH-mono-Fc and hpIgR ectodomain
[8] = target: T2, human pIgR extracellular domain (ECD); assay: ECL (MSD), hpIgR-ECD coated, anti-Fc detection
[9] = target: T2, human pIgR extracellular domain (ECD); assay: ECL (MSD), hpIgR-ECD coated, anti-VHH detection
[10] = target: T2, human pIgR extracellular domain (ECD); assay: ECL (MSD), anti-VHH detection against anti-Fc detection
Procedure: To check whether VHH recognizes a buried epitope on pIgR, EC₅₀ values were measured for VHH-mono-Fc molecules binding to hpIgR-ECD protein by electrochemiluminescence using two different detection antibodies, an anti-Fc antibody and an anti-VHH antibody. pIgR ECD (10 μg/ml in PBS) was coated on high-bind MSD plates for 2 hours at RT with 1000 rpm, incubated with blocking buffer for 1 hour at RT, incubated with VHH-mono-Fc molecules (increasing concentrations in PBS) for 2 hours at RT with 1000 rpm, washed 3× with PBT, incubated with ruthenylated secondary antibody (2 μg/ml in PBS) for 1 hour at RT with 1000 rpm, washed 3× with PBT and read plates in 40 ul reading buffer using the MSD imager. EC50 was calculated by fitting log VHH concentration versus log ECLU in Prism (Graphpad). The increase in EC₅₀ (>50-fold) due to anti-VHH detection was used as a measure to determine whether VHH recognized buried epitope on pIgR.

[11] = target: T2, human pIgR extracellular domain (ECD); assay: BLI (Octet RED384), 1:1 fit, 25 C, PBS
[12] = target: T3, human pIgR extracellular domain 4-domain 5 (D4-D5) (human, UniProt P01833 350-565); assay: BLI (Octet RED384), 1:1 fit, 25 C, PBS
T3 construct: HIS-tagged construct made in HEK293 cells; also called hpIgR domains 4-5
T3 chain: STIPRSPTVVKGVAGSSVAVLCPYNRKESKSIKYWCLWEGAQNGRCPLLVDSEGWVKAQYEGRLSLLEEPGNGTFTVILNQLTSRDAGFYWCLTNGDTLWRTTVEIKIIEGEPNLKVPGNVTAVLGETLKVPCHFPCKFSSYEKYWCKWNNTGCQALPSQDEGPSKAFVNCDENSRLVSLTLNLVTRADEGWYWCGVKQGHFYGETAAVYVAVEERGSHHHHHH

[13] = target: T1, human pIgR, full-length, on cells; assay: flow cytometry on MDCK-hpIgR cells; summary table, repeats Table 1
Procedure: (§1) Flow Cytometry was performed as follows. To test whether VHH-mono-Fc molecules recognize cell-surface hpIgR, Madin-Darby canine kidney (MDCK) cells engineered to express full-length hpIgR were used. Cells were cultured in Dulbecco's modified Eagle's medium containing 10% fetal calf serum at 37° C. with 5% CO₂. Cells were split into equal fractions (≈70,000 cells) and incubated with increasing concentrations of VHH-mono-Fc molecules for 30 min at 4 C. […] Cells were washed twice with cold staining buffer, resuspended in running buffer and analyzed with an iQue Screener (IntelliCyt Corporation). Binding was assessed by RL1 (A647) Geomeans from the live cell population and EC50 was calculated by fitting log VHH concentration versus MFI in Prism (Graphpad).

[14] = target: T1, human pIgR, full-length, on cells; assay: as above; remark: listed apart in the source
Procedure: as §1

[15] = target: T2, human pIgR extracellular domain (ECD); assay: BLI (Octet RED384), 1:1 fit, 25 C, PBS; column kdis
[16] = target: T3, human pIgR extracellular domain …; assay: as above
hpIgR_D3 = target: T4, hpIgR_D3; assay: ECL (MSD) heat map, HIS-tagged construct captured via anti-HIS, anti-human-Fc detection;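 further: VHH-mono-Fc molecules tested at 100 µg/ml for 2 h on captured His-tagged pIgR constructs (10 µg/ml), read-out as electrochemiluminescence units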
T4 construct: HIS-tagged construct from HEK293 cells; also called human pIgR extracellular domain 3 (D3); hD3
Procedure: (§2) A meso-scale discovery (MSD) platform was used for conducting epitope mapping and epitope burial studies. To test the binding of VHH-mono-Fc molecules to purified pIgR protein constructs, Streptavidin MSD plates were coated with a biotinylated anti-HIS antibody (2 μg/ml in PBS) for 1 hour at RT with 1000 rpm, washed 3× with PBT (PBS+0.1% Tween-20), incubated with blocking buffer for 1 hour at RT, incubated with His-tagged pIgR proteins (10 μg/ml in PBS) for 2 hours at RT with 1000 rpm, washed 3× with PBT, incubated with VHH-mono-Fc molecules (100 μg/ml in PBS) for 2 hours at RT with 1000 rpm, washed 3× with PBT, incubated with ruthenylated-anti-human-Fc antibody (2 μg/ml in PBS) for 1 hour at RT with 1000 rpm, washed 3× with PBT and read plates in 40 ul reading buffer using the MSD imager. ECLU values were plotted as a heatmap.
(§3) Binding of VHH-mFc molecules were tested to immobilized pIgR constructs by the electrochemiluminescence method.
T4 HIS-tagged domain construct: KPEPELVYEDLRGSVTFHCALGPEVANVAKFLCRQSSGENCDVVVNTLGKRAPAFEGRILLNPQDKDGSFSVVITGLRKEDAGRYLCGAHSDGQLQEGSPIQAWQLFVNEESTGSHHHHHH

[17] = target: T5, human pIgR extracellular domain 1 (D1) (human, UniProt P01833 19-127); assay: as above
T5 construct: HIS-tagged construct made in HEK293 cells; also called hpIgR domain-1
T5 sequence (P01833 other isoform, or with tags, fused parts or gaps limits assumed): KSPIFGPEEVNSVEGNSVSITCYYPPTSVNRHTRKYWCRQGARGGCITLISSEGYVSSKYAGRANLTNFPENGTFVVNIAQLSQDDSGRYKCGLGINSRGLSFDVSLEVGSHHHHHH
Procedure: as §2, §3

[18] = target: T6, human pIgR extracellular domain 2 (D2) (human, UniProt P01833 128-242); assay: as above
T6 construct: HIS-tagged construct made in HEK293 cells; also called hpIgR domain 2
Procedure: as §2, §3

[19] = target: T7, human pIgR extracellular domain 5 (D5) (human, UniProt P01833 460-565); assay: as above
T7 construct: HIS-tagged construct made in HEK293 cells; also called hpIgR domain 5
Procedure: as §2, §3

hpIgR_D2-D3 = target: T8, hpIgR_D2-D3; assay: as above
T8 construct: HIS-tagged construct from HEK293 cells; also called human pIgR extracellular domain 2-domain 3 (D2-D3); hD2-D3
T8 HIS-tagged domain construct: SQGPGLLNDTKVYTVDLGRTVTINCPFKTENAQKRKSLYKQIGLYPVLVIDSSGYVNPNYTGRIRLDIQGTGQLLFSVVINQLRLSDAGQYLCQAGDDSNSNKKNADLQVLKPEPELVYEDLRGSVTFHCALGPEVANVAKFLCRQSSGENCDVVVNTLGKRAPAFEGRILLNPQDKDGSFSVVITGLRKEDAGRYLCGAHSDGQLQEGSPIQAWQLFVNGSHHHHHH

[20] = target: T9, human pIgR extracellular domain 1-domain 2 (D1-D2) (human, UniProt P01833 19-240); assay: as above
T9 construct: HIS-tagged construct made in HEK293 cells
T9 sequence (P01833 other isoform, or with tags, fused parts or gaps limits assumed): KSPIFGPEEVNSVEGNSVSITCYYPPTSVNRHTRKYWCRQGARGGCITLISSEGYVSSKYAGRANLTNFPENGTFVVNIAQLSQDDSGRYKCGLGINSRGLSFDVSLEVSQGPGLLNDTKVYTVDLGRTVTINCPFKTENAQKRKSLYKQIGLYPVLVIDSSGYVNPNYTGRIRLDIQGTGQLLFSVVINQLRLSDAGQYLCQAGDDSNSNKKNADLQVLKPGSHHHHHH

T1 sequence (P01833 19-764): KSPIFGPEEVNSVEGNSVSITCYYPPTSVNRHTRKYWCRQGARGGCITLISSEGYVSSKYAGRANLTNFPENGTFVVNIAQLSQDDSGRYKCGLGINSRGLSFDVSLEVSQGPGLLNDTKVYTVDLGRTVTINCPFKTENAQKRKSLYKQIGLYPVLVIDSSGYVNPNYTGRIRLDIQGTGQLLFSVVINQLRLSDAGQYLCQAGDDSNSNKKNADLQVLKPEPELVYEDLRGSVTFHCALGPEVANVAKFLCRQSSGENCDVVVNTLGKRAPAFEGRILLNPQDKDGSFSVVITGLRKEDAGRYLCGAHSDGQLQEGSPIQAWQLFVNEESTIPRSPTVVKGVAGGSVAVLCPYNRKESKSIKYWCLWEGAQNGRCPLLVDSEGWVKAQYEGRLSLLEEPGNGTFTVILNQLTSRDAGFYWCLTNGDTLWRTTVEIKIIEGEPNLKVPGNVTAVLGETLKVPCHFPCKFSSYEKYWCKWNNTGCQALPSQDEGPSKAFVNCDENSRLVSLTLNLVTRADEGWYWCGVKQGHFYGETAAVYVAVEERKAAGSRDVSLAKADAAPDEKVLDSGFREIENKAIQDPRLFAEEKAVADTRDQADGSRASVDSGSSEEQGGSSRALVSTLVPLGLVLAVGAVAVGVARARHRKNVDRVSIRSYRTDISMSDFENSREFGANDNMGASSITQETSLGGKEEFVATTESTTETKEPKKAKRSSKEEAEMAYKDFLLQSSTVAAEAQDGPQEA

B1: VHH9-linker-mono-Fc protein (Fc fusion)
chain: QVQLVESGGGLVQAGGSLRLSCAVSGRTFSTYRMGWFRQAPGKERSFVAAISWSGGSTTYADPVKGRFTISRDNAKNTVYLRMNSLKPEDTAVYYCNDQRGYWGQGTLVTVSSEPKTPKPQPQPQLQPQPNPTTESKSPKSPAPELLGGPSVFLFPPKPKDTLMISRTPEVTCVVVDVSHEDPEVKFNWYVDGVEVHNAKTKPREEQYNSTYRVVSVLTVLHQDWLNGKEYKCKVSNKALPAPIEKTISKAKGQPREPQVYTKPPSREEMTKNQVSLSCLVKGFYPSDIAVEWESNGQPENNYKTTVPVLDSDGSFRLASYLTVDKSRWQQGNVFSCSVMHEALHNHYTQKSLSLSPGK
notes: made in CHO cells; also called VHH9-mono-Fc; hpIgR_221
[1]
  increase in their apical concentration relative to control VHH (MDCK-hpIgR monolayers): > 10 fold
[2]
  Transcytosis (Fold Incr.): 22.4 fold
[3]
  For. Trans. (Fold Incr.): 24.2 fold
  Rev. Trans (Fold Incr.): 6.6 fold
[4]
  EC50: 1.5 nM
[5]
  Kd: 4 nM
[6]
  Kd: 4 nM
[7]
  Kd: 4 nM
[8]
  EC50: 0.4 nM
[9]
  EC50: 0.8 nM
[10]
  Fold change in EC50: 1.8 fold
[11]
  Kd: 19.6 nM
  kon: 79300 M⁻¹ s⁻¹
[12]
  Kd: 12.6 nM
  kon: 133000 M⁻¹ s⁻¹
[13]
  EC50: 1.5 nM
[14]
  EC50: 1.5 nM
[15]
  koff: 0.00156 s⁻¹
[16]
  koff: 0.00169 s⁻¹
hpIgR_D3
  binding result: no binding (tested: 100 ug/ml (single concentration))
[17]
  binding result: no binding (tested: 100 ug/ml (single concentration))
[18]
  binding result: no binding (tested: 100 ug/ml (single concentration))
[19]
  binding result: no binding (tested: 100 ug/ml (single concentration))
hpIgR_D2-D3
  binding result: no binding (tested: 100 ug/ml (single concentration))
[20]
  binding result: no binding (tested: 100 ug/ml (single concentration))
